Experimental data: publication PMC3874162 (Nucleic Acids Research, 2013)
Substitutions are numbered along the chain they refer to.

What was measured:
Cdc13-K622A = biological target: T1, Cdc13-K622A (Saccharomyces cerevisiae, UniProt P32797 1-924, K622A); experiment: EMSA
T1 sequence: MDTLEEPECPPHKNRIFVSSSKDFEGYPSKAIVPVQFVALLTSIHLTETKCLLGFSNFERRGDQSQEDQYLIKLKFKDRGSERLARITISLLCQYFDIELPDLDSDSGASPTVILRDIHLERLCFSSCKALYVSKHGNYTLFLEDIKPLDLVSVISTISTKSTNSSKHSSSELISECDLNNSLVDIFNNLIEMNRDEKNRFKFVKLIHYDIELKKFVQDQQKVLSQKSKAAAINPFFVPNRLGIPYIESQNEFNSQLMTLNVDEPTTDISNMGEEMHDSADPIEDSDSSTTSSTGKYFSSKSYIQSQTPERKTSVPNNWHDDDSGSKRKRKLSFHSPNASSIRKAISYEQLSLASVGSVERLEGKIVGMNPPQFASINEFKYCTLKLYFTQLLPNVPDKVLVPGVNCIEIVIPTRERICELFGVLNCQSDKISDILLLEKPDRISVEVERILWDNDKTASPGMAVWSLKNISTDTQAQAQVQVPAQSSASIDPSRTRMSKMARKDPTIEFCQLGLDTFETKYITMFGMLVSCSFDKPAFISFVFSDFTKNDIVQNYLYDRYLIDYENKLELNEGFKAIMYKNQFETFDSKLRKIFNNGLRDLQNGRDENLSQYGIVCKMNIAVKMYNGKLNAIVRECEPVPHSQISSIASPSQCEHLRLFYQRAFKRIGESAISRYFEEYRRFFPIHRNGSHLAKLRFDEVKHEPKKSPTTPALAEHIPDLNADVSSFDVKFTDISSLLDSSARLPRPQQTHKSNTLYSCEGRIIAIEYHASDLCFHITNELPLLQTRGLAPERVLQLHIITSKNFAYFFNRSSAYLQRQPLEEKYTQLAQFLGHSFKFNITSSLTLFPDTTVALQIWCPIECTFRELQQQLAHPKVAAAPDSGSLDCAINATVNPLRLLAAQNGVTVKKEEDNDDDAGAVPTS

Cdc13-L91R = biological target: T2, Cdc13-L91R (Saccharomyces cerevisiae, UniProt P32797 1-924, L91R); experiment: EMSA
T2 sequence: T1 sequence with L91R, A622K

B1: Tel11 (ssDNA)
DNA: GTGTGGGTGTG
Kd (Cdc13-K622A): 0.05 ± 0.003 nM | Kd (Cdc13-L91R): 0.005 ± 0.0006 nM
